Literature values, collected in paper PMC9900175.

Target: CD200R (Homo sapiens) (UniProt Q8TD46)
Sequence of UniProt Q8TD46 (Q8TD46 25-265): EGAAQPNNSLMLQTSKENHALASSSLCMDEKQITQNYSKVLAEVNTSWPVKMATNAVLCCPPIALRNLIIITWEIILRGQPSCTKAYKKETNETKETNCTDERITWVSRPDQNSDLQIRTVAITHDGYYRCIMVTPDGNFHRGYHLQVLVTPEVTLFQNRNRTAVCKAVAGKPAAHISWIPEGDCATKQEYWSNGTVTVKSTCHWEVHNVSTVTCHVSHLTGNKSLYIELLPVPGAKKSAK

## CD200 (from UniProt P41217)
  Kd: 500 nM
